This passage reports probability that this protein is enriched and iTRAQ ratio results from patent US20100169988A1, “MEANS AND METHODS FOR ISOLATING AND DETERMINING NOVEL TARGETS FOR THE TREATMENT OF NEURODEGENERATIVE, NEUROLOGICAL OR NEUROPSYCHIATRIC DISORDERS AND COMPOSITIONS COMPRISING THE SAME” (priority 2006, published 2010).

Assay [1] has as its target APP-TAP-AICD (human) (UniProt P05067). Kind of assay: streptavidin purification of APP-TAP-AICD from brain homogenate; LTQ-FT semiquantitative method, transgenic mouse 75 vs control mouse 72.
Assay [2] has the same target. The experiment in a line: streptavidin purification of APP-TAP-AICD from brain homogenate; iTRAQ 116/114, transgenic mouse 75 vs control mouse 72; MALDI-TOF/TOF.

“fructose-bisphosphate aldolase A homolog (Adult male testis cDNA, RIKEN clone 4933425L11 product) (enzyme)”: the probability that this protein is enriched in the assay with APP-TAP-AICD (human) [1] turned out to be 0.87.
Lrrk1 protein (Fragment), Q3UHC2 1-2014: in the assay with APP-TAP-AICD (human) [1], the probability that this protein is enriched was found to be 0.88.
For “Syntaxin-1B2 (from UniProt P61264 1-288)”, the iTRAQ ratio in the assay with APP-TAP-AICD (human) [2] is 4.57.
In the case of “similar to heat shock protein 1, alpha isoform 1”, in the assay with APP-TAP-AICD (human) [1], the probability that this protein is enriched is 1.
As for “Heat shock protein HSP 90-alpha (HSP 86) (Tumor specific transplantation 86 kDa antigen) (from UniProt P07901 2-733)”, in the assay with APP-TAP-AICD (human) [2], the iTRAQ ratio stood at 4.22.
